For this assay, the target named is T1, GST-Pdcd4 (GST fusion to full length Drosophila Pdcd4) (Drosophila, UniProt Q9VY91).
T1 chain: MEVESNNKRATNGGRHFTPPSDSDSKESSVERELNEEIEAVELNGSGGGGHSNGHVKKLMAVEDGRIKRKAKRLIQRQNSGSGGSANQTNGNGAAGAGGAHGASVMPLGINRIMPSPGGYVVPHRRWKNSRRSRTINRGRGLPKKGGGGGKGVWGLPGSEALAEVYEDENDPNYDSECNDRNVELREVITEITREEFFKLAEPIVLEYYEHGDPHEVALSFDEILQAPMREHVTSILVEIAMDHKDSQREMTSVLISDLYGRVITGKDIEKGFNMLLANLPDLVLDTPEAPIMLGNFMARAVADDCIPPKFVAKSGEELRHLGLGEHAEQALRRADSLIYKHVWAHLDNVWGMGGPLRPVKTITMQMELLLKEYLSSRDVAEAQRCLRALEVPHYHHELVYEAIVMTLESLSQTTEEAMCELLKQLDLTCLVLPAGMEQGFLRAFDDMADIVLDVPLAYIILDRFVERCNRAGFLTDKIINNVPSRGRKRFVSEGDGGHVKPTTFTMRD
The assay can be described thus: GST pull-down (affinity chromatography, immunoblot). For orientation: In western blotting, separated proteins are transferred to a membrane and probed.

Consider one molecule from publication PMC3713452 (2013).

B1: recombinant Drosophila eIF4A (6His eIF4A) (protein)
chain: MDDRNEIPQDGPASMEPEGVIESTWHEVYDNFDDMNLREELLRGIYGYGFEKPSAIQQRAIIPCVRGRDVIAQAQSGTGKTATFSIAILQQIDTSIRECQALILAPTRELATQIQRVVMALGEYMKVHSHACIGGTNVREDARILESGCHVVVGTPGRVYDMINRKVLRTQYIKLFVLDEADEMLSRGFKDQIQDVFKMLPPDVQVILLSATMPPDVLEVSRCFMRDPVSILVKKEELTLEGIKQFYVNVKQENWKLGTLCDLYDTLSITQSVIFCNTRRKVDQLTQEMSIHNFTVSAMHGDMEQRDREVIMKQFRSGSSRVLITTDLLARGIDVQQVSLVINYDLPSNRENYIHRIGRGGRFGRKGVAINFITDDDRRILKDIEQFYHTTIEEMPANIADLI
Consider B1, for which the binding result is “binds”.
